This passage reports Kd, koff and kon results from US20120177664A1 (IMMUNAS PHARMA, published 2012).

B1: IR-028 antibody (antibody, V domains shown)
VH: DVQLVESGGGLVQPGGSRKLSCAASGFTFSSFGMHWVRQAPEKGLEWVAYISSGSSTIYYADTVKGRFTISRDNPKNTLFLQMTSLRSEDTAMYYCARTGTGAMDYWGQGTSVTVSS
VL: DVVMTQTPLSLPVSLGDQASISCRSSQSLVHSNGNTYLHWYLQKPGQSPKLLIYKVSNRFSGVPDRFSGSGSGTDFTLKISRVEAEDLGVYFCSQSTHVPPTFGGGTKLEIK
notes: mouse IgG2b
B2: IR-036 antibody (antibody, mouse IgG2b, V domains shown)
VH: QVTLKESGPGILQPSQTLSLTCSFSGFSLSTSGMGVSWIRQPSGKGLEWLAHIYWDDDKRYNPSLKSRLTISKDTSRNQVFLKITSVDTADTATYYCARRANYYGYGMDAMDYWGQGTSVTVSS
VL: DVLMTQTPLSLPVSLGDQASISCRSSQSIVHSNGNTYLEWYLQKPGQSPKLLIYKVSNRFSGVPDRFSGSGSGTDFTLKISRVEAEDLGVYYCFQGSHVPLTFGAGTKLELK
notes: mouse IgG2b
B3: IR-037 antibody (antibody, mouse IgG1, V domains shown)
VH: DVQLVESGGGLVQPGGSRKLSCAASGFTFSSFGMHWVRQAPEKGLEWVAYISSGSSTIYYADTVKGRFTISRDNPKNTLFLQMTSLRSEDTAMYYCARDGTMDYWGQGTSVTVSS
VL: DAVMTQTPLSLPVSLGDQASISCRSSQSLENSNGNTYLNWYLQKPGQSPQLLIYRVSNRFSGVLDRFSGSGSGTDFTLKISRVEAEDLGVYFCLQVTHVPPTFGGGTKLEIK
notes: mouse IgG1
B4: IR-128 antibody (antibody, V domains shown)
VH: DVQLVESGGGLVQPGGSRKLSCAASGFTFSSFGMHWVRQAPEKGLEWVAYISSGSSTIYYADTVKGRFTISRDNPKNTLFLQMTSLRSEDTAMYYCAREGHFDYWGQGTTLTVSS
VL: DVVMTQTPLSLPVSLGDQASISCRSSQSLVHSNGNTYLHWYLQKPGQSPKLLIYKVSNRFSGVPDRFSGSGSGTDFTLKISRVEAEDLGVYFCSQSTHVPPTFGGGTKLEIK
notes: mouse IgG2a
B5: IR-039 antibody (antibody, mouse IgG2b, V domains shown)
VH: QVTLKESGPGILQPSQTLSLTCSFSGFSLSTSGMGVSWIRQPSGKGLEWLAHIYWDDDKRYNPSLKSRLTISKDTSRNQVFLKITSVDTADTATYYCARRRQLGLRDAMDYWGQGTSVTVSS
VL: DVLMTQTPLSLPVSLGDQASISCRSSQSIVHSNGNTYLEWYLQKPGQSPKLLIYKVSNRFSGVPDRFSGSGSGTDFTLKISRVEAEDLGVYYCFQGSHVPLTFGAGTKLELK
notes: mouse IgG2b
B6: IR-077 antibody (antibody, mouse IgG2a, V domains shown)
VH: DVQLVESGGGLVQPGGSRKLSCAASGFTFSSFGMHWVRQAPEKGLEWVAYISSGSSTIYYADTVKGRFTISRDNPKNTLFLQMTSLRSEDTAMYYCARSGYRYSYYAMDYWGQGTSVTVSS
VL: DVLMTQTPLSLPVSLGDQASISCRSSQSIVHSNGNTYLEWYLQKPGQSPKLLIYKVSNRFSGVPDRFSGSGSGTDFTLKISRVEAEDLGVYYCFQGSHVPLTFGAGTKLELK
notes: mouse IgG2a
B7: IR-127 antibody (antibody, mouse IgG2a, V domains shown)
VH: DVQLVESGGGLVQPGGSRKLSCAASGFTFSSFGMHWVRQAPEKGLEWVAYISSGSSTIYYADTVKGRFTISRDNPKNTLFLQMTSLRSEDTAMYYCARKGTYYRYDAFDYWGQGTTLTVSS
VL: DVLMTQTPLSLPVSLGDQASISCRSSQSIVHSNGNTYLEWYLQKPGQSPKLLIYKVSNRFSGVPDRFSGSGSGTDFTLKISRVEAEDLGVYYCFQGSHVPPTFGGGTKLEIK
notes: mouse IgG2a
B8: IR-146 antibody (antibody, mouse IgG2a, V domains shown)
VH: DVQLVESGGGLVQPGGSRKLSCAASGFTFSSFGMHWVRQAPEKGLEWVAYISSGSSTIYYADTVKGRFTISRDNPKNTLFLQMTSLRSEDTAMYYCARGGTGAMDYWGQGTSVTVSS
VL: DVLMTQTPLSLPVSLGDQASISCRSSQSIVHSNGNTYLEWYLQKPGQSPKLLIYKVSNRFSGVPDRFSGSGSGTDFTLKISRVEAEDLGVYYCFQGSHVPPTFGGGTKLEIK
notes: mouse IgG2a
B9: IR-121 antibody (antibody, mouse IgG2b, V domains shown)
VH: DVQLVESGGGLVQPGGSRKLSCAASGFTFSSFGMHWVRQAPEKGLEWVAYISSGSSTIYYADTVKGRFTISRDNPKNTLFLQMTSLRSEDTAMYYCATYGIYAMDYWGQGTSVTVSS
VL: DVLMTQTPLSLPVSLGDQASISCRSSQSIVHSNGNTYLEWYLQKPGQSPKLLIYKVSNRFSGVPDRFSGSGSGTDFTLKISRVEAEDLGVYYCFQGSHVPPTFGGGTKLEIK
notes: mouse IgG2b
B10: IR-062 antibody (antibody, mouse IgG2b, V domains shown)
VH: DVQLVESGGGLVQPGGSRKLSCAASGFTFSSFGMHWVRQAPEKGLEWVAYISSGSSTIYYADTVKGRFTISRDNPKNTLFLQMTSLRSEDTAMYYCARYYHYAMDYWGQGTSVTVSS
VL: DVLMTQTPLSLPVSLGDQASISCRSSQSIVHSNGNTYLEWYLQKPGQSPKLLIYKVSNRFSGVPDRFSGSGSGTDFTLKISRVEAEDLGVYYCFQGSHVPPTFGGGTKLEIK
notes: mouse IgG2b
B11: IR-038 antibody (antibody, mouse IgG2b, V domains shown)
VH: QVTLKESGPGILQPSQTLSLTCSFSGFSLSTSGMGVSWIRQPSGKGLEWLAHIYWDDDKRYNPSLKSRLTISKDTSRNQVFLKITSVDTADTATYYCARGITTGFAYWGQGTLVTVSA
VL: DVLMTQTPLSLPVSLGDQASISCRSSQSIVHSNGNTYLEWYLQKPGQSPKLLIYKVSNRFSGVPDRFSGSGSGTDFTLKISRVEAEDLGVYYCFQGSHVPLTFGAGTKLELK
notes: mouse IgG2b
B12: IR-057 antibody (antibody, mouse IgG1, V domains shown)
VH: DVQLVESGGGLVQPGGSRKLSCAASGFTFSSFGMHWVRQAPEKGLEWVAYISSGSSTIYYADTVKGRFTISRDNPKNTLFLQMTSLRSEDTAMYYCARYGNYAMDYWGQGTSVTVSS
VL: DVLMTQTPLSLPVSLGDQASISCRSSQSIVHSNGNTYLEWYLQKPGQSPKLLIYKVSNRFSGVPDRFSGSGSGTDFTLKISRVEAEDLGVYYCFQGSHVPPTFGGGTKLEIK
notes: mouse IgG1
B13: IR-060 antibody (antibody, mouse IgG2a, V domains shown)
VH: DVQLVESGGGLVQPGGSRKLSCAASGFTFSSFGMHWVRQAPEKGLEWVAYISSGSSTIYYADTVKGRFTISRDNPKNTLFLQMTSLRSEDTAMYYCARGGNYLRYYAMDYWGQGTSVTVSS
VL: DVLMTQTPLSLPVSLGDQASISCRSSQSIVHSNGNTYLEWYLQKPGQSPKLLIYKVSNRFSGVPDRFSGSGSGTDFTLKISRVEAEDLGVYYCFQGSHVPLTFGAGTKLELK
notes: mouse IgG2a
B14: IR-095 antibody (antibody, mouse IgG2b, V domains shown)
VH: QVTLKESGPGILQPSQTLSLTCSFSGFSLSTSGMGVSWIRQPSGKGLEWLAHIYWDDDKRYNPSLKSRLTISKDTSRNQVFLKITSVDTADTATYYCARRAPRLYYGYDAMDYWGQGTSVTVSS
VL: DVLMTQTPLSLPVSLGDQASISCRSSQSIVHSNGNTYLEWYLQKPGQSPKLLIYKVSNRFSGVPDRFSGSGSGTDFTLKISRVEAEDLGVYYCFQGSHVPLTFGAGTKLELK
notes: mouse IgG2b
B15: IR-124 antibody (antibody, mouse IgG2a, V domains shown)
VH: DVQLVESGGGLVQPGGSRKLSCAASGFTFSSFGMHWVRQAPEKGLEWVAYISSGSSTIYYADTVKGRFTISRDNPKNTLFLQMTSLRSEDTAMYYCAIYYYGSSYYWGQGTTLTVSS
VL: DVLMTQTPLSLPVSLGDQASISCRSSQSIVHSNGNTYLEWYLQKPGQSPKLLIYKVSNRFSGVPDRFSGSGSGTDFTLKISRVEAEDLGVYYCFQGSHVPPTFGAGTKLELK
notes: mouse IgG2a
B16: IR-067 antibody (antibody, mouse IgG2b, V domains shown)
VH: DVQLVESGGGLVQPGGSRKLSCAASGFTFSSFGMHWVRQAPEKGLEWVAYISSGSSTIYYADTVKGRFTISRDNPKNTLFLQMTSLRSEDTAMYYCARSGGNYLMDYWGQGTSVTVSS
VL: DVLMTQTPLSLPVSLGDQASISCRSSQSIVHSNGNTYLEWYLQKPGQSPKLLIYKVSNRFSGVPDRFSGSGSGTDFTLKISRVEAEDLGVYYCFQGSHVPLTFGAGTKLELK
notes: mouse IgG2b
B17: IR-063 antibody (antibody, mouse IgG2b, V domains shown)
VH: DVQLVESGGGLVQPGGSRKLSCAASGFTFSSFGMHWVRQAPEKGLEWVAYISSGSSTIYYADTVKGRFTISRDNPKNTLFLQMTSLRSEDTAMYYCAREGDFDYWGQGTTLTVSS
VL: DVVMTQTPLSLPVSLGDQASISCRSSQSLVHSNGNTYLHWYLQKPGQSPKLLIYKVSNRFSGVPDRFSGSGSGTDFTLKISRVEAEDLGVYFCSQSTHVPLTFGAGTKLELK
notes: mouse IgG2b
B18: IR-125 antibody (antibody, mouse IgG2b, V domains shown)
VH: DVQLVESGGGLVQPGGSRKLSCAASGFTFSSFGMHWVRQAPEKGLEWVAYISSGSSTIYYADTVKGRFTISRDNPKNTLFLQMTSLRSEDTAMYYCARAGGYSLSYAMDYWGQGTSVTVSS
VL: DVLMTQTPLSLPVSLGDQASISCRSSQSIVHSNGNTYLEWYLQKPGQSPKLLIYKVSNRFSGVPDRFSGSGSGTDFTLKISRVEAEDLGVYYCFQGSHVPPTFGGGTKLEIK
notes: mouse IgG2b
B19: IR-041 antibody (antibody, mouse IgG2a, V domains shown)
VH: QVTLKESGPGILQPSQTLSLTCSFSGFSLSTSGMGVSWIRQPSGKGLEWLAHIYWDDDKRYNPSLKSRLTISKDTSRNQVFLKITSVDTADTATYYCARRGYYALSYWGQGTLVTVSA
VL: DVLMTQTPLSLPVSLGDQASISCRSSQSIVHSNGNTYLEWYLQKPGQSPKLLIYKVSNRFSGVPDRFSGSGSGTDFTLKISRVEAEDLGVYYCFQGSHVPLTFGAGTKLELK
notes: mouse IgG2a

The assay concerns the target T1, A beta oligomer (synthetic A beta1-40, HCl form, 0.1 mg/ml in PBS, incubated at 37 degrees C for one hour) (UniProt P05067 672-711).
T1 construct: domain: A beta1-40; non-fibrous multimer of the peptide; also called A beta 1-40 oligomer
Kind of assay: SPR (Biacore 3000). The procedure:
The analysis was carried out by Surface Plasmon Resonance (SPR) using Biacore 3000 (GE Healthcare Sciences).
A general note: SPR reads the build-up and loss of mass on a sensor chip optically.
Turning to B1, the Kd stood at 852 nM, the koff was found to be 0.27 s⁻¹ and the on-rate constant (kon) stood at 317000 M⁻¹ s⁻¹.

As for B2, the Kd is 100 nM, the koff is 0.00876 s⁻¹ and the kon came out at 87600 M⁻¹ s⁻¹.

With B3, the Kd came to 659 nM, the koff is 0.0609 s⁻¹ and the kon was 92400 M⁻¹ s⁻¹.

On to B4, for which the Kd was determined as 1070 nM, the koff worked out at 0.37 s⁻¹ and the kon was determined as 345000 M⁻¹ s⁻¹.

With B5, binding was characterised by a dissociation constant (Kd) of 47.4 nM, the koff came to 0.00711 s⁻¹ and the kon was found to be 150000 M⁻¹ s⁻¹.

B6 came in with a Kd of 550 nM, a koff of 0.153 s⁻¹ and a kon of 278000 M⁻¹ s⁻¹.

Molecule B7 gave a Kd of 1020 nM, a koff of 0.261 s⁻¹ and an on-rate constant (kon) of 256000 M⁻¹ s⁻¹.

For the molecule B8, the affinity, expressed as Kd, was 1060 nM; the koff was found to be 0.383 s⁻¹; the kon was determined as 361000 M⁻¹ s⁻¹.

Regarding B9, the Kd was 84.2 nM, the koff amounted to 0.00831 s⁻¹ and the kon was 98700 M⁻¹ s⁻¹.

B10 returned a Kd of 364 nM, a dissociation rate constant (koff) of 0.139 s⁻¹ and a kon of 382000 M⁻¹ s⁻¹.

B11 showed a Kd of 84.3 nM, a koff of 0.00752 s⁻¹ and a kon of 89200 M⁻¹ s⁻¹.

As for B12, the Kd was 156 nM, the koff amounted to 0.0579 s⁻¹ and the association rate constant (kon) stood at 370000 M⁻¹ s⁻¹.

B13 had a Kd of 2610 nM, a koff of 0.2 s⁻¹ and a kon of 76700 M⁻¹ s⁻¹.

Consider B14, for which the affinity, expressed as Kd, was 35 nM; the koff came to 0.00331 s⁻¹; the kon worked out at 94600 M⁻¹ s⁻¹.

As for B15, the affinity, expressed as Kd, was 141 nM; the koff amounted to 0.00995 s⁻¹; the kon came to 70400 M⁻¹ s⁻¹.

B16 gave a Kd of 549 nM, a koff of 0.118 s⁻¹ and a kon of 215000 M⁻¹ s⁻¹.

Molecule B17 yielded a Kd of 1270 nM, a koff of 0.145 s⁻¹ and a kon of 114000 M⁻¹ s⁻¹.

The molecule B18 displayed an equilibrium dissociation constant (Kd) of 78.8 nM, a koff of 0.00395 s⁻¹ and a kon of 50100 M⁻¹ s⁻¹.

With B19, the Kd amounted to 1370 nM, the koff was 0.0949 s⁻¹ and the kon was found to be 69400 M⁻¹ s⁻¹.

As usually defined, the Kd is the constant that tells how readily two partners part at equilibrium. Read a high Kd as lower affinity. By koff is commonly meant a measure of how fast the partners let go of each other. Lower therefore signals slow dissociation. As a reminder, the kon is the rate constant with which the complex forms. A lower kon goes with slower complex formation.
